According to publication PMC4234702 (Cellular and molecular life sciences : CMLS, 2014):

Target: the molecule itself
Experiment: crystal structure

B1: cell-free expressed Δ7 DgkA (thermostabilized mutant of diacylglycerol kinase) (enzyme, Escherichia coli)
chain: ANNTTGFTRIIKAAGYSWKGLRAAWINEAAFRQEGVAVLLCVVIAAWLDVDAVTRVLLISSVMLVMIVELLNSAIEAVVDRIGSEYHELSGRAKDLGSAAVLIAIIDAVITWAILLWSHFG
For B1, the “stoichiometry N” value was 3.
